# From PMC6321254
# How the values were obtained:
# [1] = biological target: HA-CXCR1-RLuc (human) (UniProt P25024)
# [2] = biological target: HA-CXCR1-RLuc (human) (UniProt P25024); remark: listed apart in the source
# [3] = biological target: HA-CXCR1-RLuc (human) (UniProt P25024); remark: listed apart in the source
# HA-CXCR1-RLuc (human), sequence (P25024 2-350): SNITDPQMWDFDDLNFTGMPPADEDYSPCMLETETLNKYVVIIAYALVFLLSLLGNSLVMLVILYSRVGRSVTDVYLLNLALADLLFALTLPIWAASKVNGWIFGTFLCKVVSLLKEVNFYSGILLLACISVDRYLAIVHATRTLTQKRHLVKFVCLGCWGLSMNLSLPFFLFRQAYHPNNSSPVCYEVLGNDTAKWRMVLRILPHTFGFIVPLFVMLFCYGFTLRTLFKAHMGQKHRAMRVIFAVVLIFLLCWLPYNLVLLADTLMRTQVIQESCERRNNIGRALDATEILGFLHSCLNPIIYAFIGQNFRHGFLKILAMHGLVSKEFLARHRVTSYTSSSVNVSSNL
Substance,"potency to induce recruitment of β-arrestin 2-EYFP to CXCR1-RLuc (BRET dose-response, HEK-293T), against CXCL8(1-77) (fold (against CXCL8(1-77))) [1]",Gαi-dependent reduction of forskolin-raised cAMP (AlphaScreen cAMP assay) in HEK-293T cells transfected with CXCR1 (pcDNA6 construct without RLuc); 0.1-100 nM; potency against CXCL8(1-77) (fold (against CXCL8(1-77))) [2],"internalization of endogenous CXCR1 on freshly purified human neutrophils (flow cytometry of surface receptor; 0.1-100 nM, 1 h, 37 °C); lowest concentration with a significant effect [3]"
CXCL8(6-77) (ligand),10,> 10,
CXCL8(1-77) (ligand),,,> 10 nM
[Cit5]CXCL8(1-77) (ligand),,> 10,
